Experimental data taken from publication PMC6448830 (2019).

T1: human 2B4-Fc fusion protein (human, UniProt Q9BZW8 22-229)
T1 chain: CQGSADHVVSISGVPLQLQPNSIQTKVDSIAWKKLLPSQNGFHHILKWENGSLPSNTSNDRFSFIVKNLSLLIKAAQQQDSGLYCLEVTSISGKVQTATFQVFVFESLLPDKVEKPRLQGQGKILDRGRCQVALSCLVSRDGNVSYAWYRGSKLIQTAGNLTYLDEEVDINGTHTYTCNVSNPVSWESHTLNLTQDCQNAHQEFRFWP

T2: A. trivirgatus 2B4-Fc fusion protein (Aotus trivirgatus)
T2 chain: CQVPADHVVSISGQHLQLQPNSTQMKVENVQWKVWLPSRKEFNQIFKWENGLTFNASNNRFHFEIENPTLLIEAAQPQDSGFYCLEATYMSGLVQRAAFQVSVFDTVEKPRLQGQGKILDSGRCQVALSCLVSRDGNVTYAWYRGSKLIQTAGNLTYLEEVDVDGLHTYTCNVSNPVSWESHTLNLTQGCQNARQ

B1: human CD48-Fc fusion protein (Fc fusion)
chain: QGHLVHMTVVSGSNVTLNISESLPENYKQLTWFYTFDQKIVEWDSRKSKYFESKFKGRVRLDPQSGALYISKVQKEDNSTYIMRVLKKTGNEQEWKIKLQVLDPVPKPVIKIEKIEDMDDNCYLKLSCVIPGESVNYTWYGDKRPFPKELQNSVLETTLMPHNYSRCYTCQVSNSVSSKNGTVCLSPPCTLARS
modifications: biotin (biotinylated hCD48-Fc in the blocking assays)
B2: A. trivirgatus CD48-Fc fusion protein (Fc fusion)
chain: TSIQGNSVDVINAISGGNVTLNISESLPENVREITWFCTYHQKIADWDVKRLKYFDNKFKGRVRLDYQSGALYISKIQKEDANIYIMRVLKETMYEQEWKIRLQVFDPVPKPDIKIEKTAKVEDDCYLKLSCVIPDESVNYTWYGDKEPFPKEFQSGVLETTLKSQDYSRCYTCQVSNPVSSKNDTVCFS
modifications: biotin (biotinylated host CD48-Fc in the blocking ELISA)

Tests used:
Experiment in all cases: SPR
[1] = target: T1, human 2B4-Fc fusion protein
[2] = target: T1, human 2B4-Fc fusion protein
[3] = target: T2, A. trivirgatus 2B4-Fc fusion protein

Binder | koff [1] [s⁻¹] | Kd [2] [nM] | koff [3] [s⁻¹]
B1 | 0.0224 | 23 | –
B2 | – | – | 0.000489
